The record followed here is article PMC6750902.

The target of data set [1] is Anti-CRISPR protein AcrIIC2. Description: AUC.
Data set [2] addresses Neisseria meningitidis Cas9 (NmeCas9), full length (Neisseria meningitidis) (UniProt C9X1G5). Put plainly: SEC + other: quantitative SDS-PAGE against standards.
Another data set deals with T1, NmeCas9 (Neisseria meningitidis, UniProt C9X1G5 1-1082).
T1 sequence: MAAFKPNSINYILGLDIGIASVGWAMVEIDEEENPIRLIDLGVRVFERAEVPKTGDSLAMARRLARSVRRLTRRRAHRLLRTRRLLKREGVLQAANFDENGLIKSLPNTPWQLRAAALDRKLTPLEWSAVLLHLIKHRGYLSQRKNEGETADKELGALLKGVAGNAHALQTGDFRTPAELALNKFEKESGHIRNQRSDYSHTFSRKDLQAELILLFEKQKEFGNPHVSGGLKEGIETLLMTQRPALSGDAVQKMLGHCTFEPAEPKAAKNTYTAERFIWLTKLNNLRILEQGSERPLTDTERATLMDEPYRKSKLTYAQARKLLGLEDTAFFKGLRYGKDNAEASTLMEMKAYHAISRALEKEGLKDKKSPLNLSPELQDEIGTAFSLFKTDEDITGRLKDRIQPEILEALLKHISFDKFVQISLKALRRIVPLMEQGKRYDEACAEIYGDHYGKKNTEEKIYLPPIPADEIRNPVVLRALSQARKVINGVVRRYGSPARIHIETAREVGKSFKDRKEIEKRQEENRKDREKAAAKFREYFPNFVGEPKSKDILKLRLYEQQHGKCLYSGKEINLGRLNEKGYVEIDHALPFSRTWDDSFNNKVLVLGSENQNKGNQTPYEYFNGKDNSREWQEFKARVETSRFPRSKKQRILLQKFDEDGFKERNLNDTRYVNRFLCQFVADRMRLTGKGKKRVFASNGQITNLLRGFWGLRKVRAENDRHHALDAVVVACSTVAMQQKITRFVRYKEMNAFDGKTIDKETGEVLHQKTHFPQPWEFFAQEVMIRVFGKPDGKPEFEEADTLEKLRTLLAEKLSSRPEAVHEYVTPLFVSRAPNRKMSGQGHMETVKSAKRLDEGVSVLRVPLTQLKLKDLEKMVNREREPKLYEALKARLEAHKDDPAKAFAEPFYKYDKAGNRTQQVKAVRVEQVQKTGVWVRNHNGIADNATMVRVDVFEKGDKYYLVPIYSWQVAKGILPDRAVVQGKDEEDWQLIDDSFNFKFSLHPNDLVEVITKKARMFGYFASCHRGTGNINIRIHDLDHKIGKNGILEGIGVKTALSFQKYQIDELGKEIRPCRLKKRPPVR
Put plainly: DRaCALA.

Take “Anti-CRISPR protein AcrIIC2 (natural protein)”: in data set [1], the stoichiometry N came to 2. Regarding “Anti-CRISPR protein AcrIIC3 (natural protein)”, the stoichiometry N (AcrIIC3 per Cas9 (printed as 2:2)) in data set [2] was 1.

B1: NmeCas9 sgRNA, 94 nt (binding assay) (structured_RNA)
RNA: GGCUCCUCAGAUGUAGUAUUCAGAGUUGUAGCUCCCUUUCUGAAAAGAACCGUUGCUACAAUAAGGCCGUCUGAAAAGAUGUGCCGCAACGCUC
B1 registered a Kd with NmeCas9 of 1.66 nM.

In general, stoichiometry N refers to a count of units in the complex or per binding partner. As a reminder, the Kd is the equilibrium constant for the complex coming apart.
